Experimental data from IntAct's records for PubMed 16443932.

Biological target: cdc42_human CDC42 (UniProt P60953)
Chain of UniProt P60953 (P60953 whole entry, looked up): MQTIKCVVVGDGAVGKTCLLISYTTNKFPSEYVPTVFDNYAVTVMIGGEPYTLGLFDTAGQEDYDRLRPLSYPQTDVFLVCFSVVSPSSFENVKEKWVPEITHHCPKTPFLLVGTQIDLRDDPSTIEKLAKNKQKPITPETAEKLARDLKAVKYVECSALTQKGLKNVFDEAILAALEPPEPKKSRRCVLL

effect of a mutation on the interaction: disrupting interaction strength
Substance: Phospholipid-transporting ATPase ABCA1 (Homo sapiens), O95477 K939M
